Results as given in patent US7244836 (Genentech, dated 2007).
Blank lines part the entries; values can stand above or below the binder they belong to.

Key:
[1] = biological target: T1, GAL4(TA)-TRAF1 co-expressed with directly expressed TRAF2 (yeast; murine, UniProt P39428 2-409; P39429 1-501, limits assumed); assay: yeast three-component assay with TRAF2 (no NLS) expressed directly; growth on trp- leu- his- medium with 20 mM 3-aminotriazole
T1 construct: also called GAL4(TA)-TRAF1 + TRAF2; pPC86TRAF1 with pPCTRAF2
T1 sequence 1: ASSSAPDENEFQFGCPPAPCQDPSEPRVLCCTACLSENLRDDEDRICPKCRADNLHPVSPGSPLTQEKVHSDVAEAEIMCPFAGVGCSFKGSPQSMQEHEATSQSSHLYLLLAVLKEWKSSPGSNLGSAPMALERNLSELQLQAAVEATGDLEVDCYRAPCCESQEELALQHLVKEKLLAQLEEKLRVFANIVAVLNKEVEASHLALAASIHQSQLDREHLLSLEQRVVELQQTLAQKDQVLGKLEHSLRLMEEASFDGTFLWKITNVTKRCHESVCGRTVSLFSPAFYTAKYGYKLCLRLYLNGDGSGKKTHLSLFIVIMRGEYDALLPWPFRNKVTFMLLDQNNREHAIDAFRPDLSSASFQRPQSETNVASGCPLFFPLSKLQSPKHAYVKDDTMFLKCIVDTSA
T1 sequence 2: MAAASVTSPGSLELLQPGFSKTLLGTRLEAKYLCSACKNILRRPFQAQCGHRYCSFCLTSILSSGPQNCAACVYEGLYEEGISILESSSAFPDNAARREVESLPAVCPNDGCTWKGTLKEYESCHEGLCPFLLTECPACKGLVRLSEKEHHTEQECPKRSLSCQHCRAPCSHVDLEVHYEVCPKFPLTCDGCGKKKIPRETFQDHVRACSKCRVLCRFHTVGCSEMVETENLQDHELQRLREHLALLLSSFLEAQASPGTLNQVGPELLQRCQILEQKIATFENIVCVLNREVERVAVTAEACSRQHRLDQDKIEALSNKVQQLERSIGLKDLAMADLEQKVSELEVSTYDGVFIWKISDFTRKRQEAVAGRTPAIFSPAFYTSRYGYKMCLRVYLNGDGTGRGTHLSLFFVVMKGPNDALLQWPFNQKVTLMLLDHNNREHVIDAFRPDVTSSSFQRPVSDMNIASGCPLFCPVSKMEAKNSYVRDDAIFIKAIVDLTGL
Protocol: HF7c cells were sequentially transformed with plasmids (see text) encoding the indicated GAL4 DNA-binding domain (DB) fusion proteins, the GAL4 transcriptional activation domain (TA) TRAF1 fusion protein, and TRAF2 or TRAF2 fused to the simian virus 40 large tumor antigen nuclear localization signal (NLS). The final transformation mixtures were plated onto synthetic dextrose plates lacking trp, leu, his and containing 20 mM 3-aminotriazole. Plus signs indicate growth of transformed yeast colonies on the respective plates. *See Table 2.

GST-TRAF2 fusion protein = biological target: T2, GST-TRAF2 fusion protein (murine, UniProt P39429 1-501); assay: GST-TRAF2 beads incubated with 293/TNF-R2 cell lysate; SDS-PAGE and Western blot with anti-hTNF-R2 antibody
T2 construct: Expressed in E. coli in the presence of 1 mM ZnCl2; also called GST-TRAF2 fusion protein beads; not shown: glutathione S-transferase as encoded by vector pGEX-2TK, with the vector's linker
T2 sequence: T1 sequence 2
Protocol: FIG. 16. […] Reactions were analyzed by SDS-PAGE and Western blot analysis using anti-human TNF-R1 monoclonal antibody 986 (0.5 μg/ml) and anti-human TNF-R2 monoclonal antibody 1036 (0.5 μg/ml). An arrow indicates the 75-80 kd hTNF-R2 band that is coprecipitated specifically with the GST-TRAF2 fusion protein. Molecular weight markers are indicated on the right in kd.
An expression vector encoding a GST-TRAF2 fusion protein was constructed. The TRAF2 coding region was amplified from pPC86TRAF2 by PCR with Pfu DNA polymerase as described above using the oligonucleotide primers 5'-[…] TTGT-3' (SEQ. ID. NO: 53) and 5'-[…]-3' (SEQ. ID. NO: 54). The amplified 1.6 kb DNA fragment was blunt-ended using *E. coli* DNA polymerase I, digested with BamHI and cloned into BamHI/SmaI-digested pGEX-2TK vector. The GST-TRAF2 fusion protein was expressed in the presence of 1 mM ZnCL_2 and purified as described above. […] Primary antibodies directed against the extracellular domains of hTNF-R2 and hTNF-R1 (as a control) were used at a concentration of 0.5 µg/ml and the secondary sheep anti-mouse horseradish peroxidase conjugate (Amersham) at a dilution of 1:6000.

[2] = biological target: T3, TNF Receptor Associated Factor 1, purified from CT6 cells (murine, UniProt P39428 1-409, N-terminally blocked (so in the source); nature of the block not stated)); assay: band eluted specifically from the GST-hTNF-R2icd affinity column and identified by peptide sequencing; association may be indirect (through TRAF2)
T3 construct: also called TRAF1; protein band at 45-50 kd
T3 sequence: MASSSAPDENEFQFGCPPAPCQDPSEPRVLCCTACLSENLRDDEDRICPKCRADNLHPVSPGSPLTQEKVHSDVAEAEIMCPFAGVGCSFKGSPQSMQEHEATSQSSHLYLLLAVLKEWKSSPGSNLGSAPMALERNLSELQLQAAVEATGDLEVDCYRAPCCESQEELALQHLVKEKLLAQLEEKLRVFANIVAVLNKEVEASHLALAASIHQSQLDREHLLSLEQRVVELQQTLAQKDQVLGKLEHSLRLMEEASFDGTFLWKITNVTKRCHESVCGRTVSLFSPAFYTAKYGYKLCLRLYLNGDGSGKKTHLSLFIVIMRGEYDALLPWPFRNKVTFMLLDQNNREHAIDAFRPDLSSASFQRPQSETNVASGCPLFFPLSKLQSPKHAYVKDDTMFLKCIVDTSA
Protocol: For large scale purification of hTNF-R2icd associated factors 60 l of CT6 cells (3×10^10 cells) were harvested and washed twice with cold PBS. All subsequent operations were carried out at 4° C. The cells were lysed by adding 120 ml of 0.1% NP40 lysis buffer containing 100 mM NaCl and rocked gently for 30 min. Insoluble material was removed by centrifugation for 10 min at 10,000×g. The supernatant was then centrifuged at 100,000×g for 1 hr and dialyzed against lysis buffer containing 500 mM NaCl. All subsequent purification steps were carried out in lysis buffer containing 500 mM NaCl. The cell lysate was passed through a 15 ml glutathione-agarose GST-hTNF-R2icd(-37) fusion protein preabsorption column. The flow-through was applied to a 0.3 ml Affigel10/15 GST-hTNF-R2icd fusion protein affinity column. For control, the lysate was run through a similar Affigel10/15 GST-hTNF-R2icd(-37) fusion protein affinity column in parallel. After extensive washing, proteins bound to the resins were eluted with five column volumes of ImmunoPure Gentle Ag1Ab Elution Buffer (Pierce) containing, 0.1 M DTT, precipitated with Methanol/Chloroform and resuspended in SDS sample buffer containing 5% SDS. One tenth of the material was separated by SDS-PAGE under reducing conditions and visualized by silver staining (FIG. 9).

- binding result [2]: binds
B3: GST-hTNF-R2icd fusion protein (other, human, UniProt P20333 288-461, looked up)
chain: KKKPLCLQREAKVPHLPADKARGTQGPEQQHLLITAPSSSSSSLESSASALDRRAPTRNQPQAPGVEASGAGEARASTGSSDSSPGGHGTQVNVTCIVNVCSSSDHSSQCSSQASSTMGDTDSSPSESPKDEQVPFSKEECAFRSQLETPETLLGSTEEKPLPLGVPDAGMKPS
notes: domain: intracellular domain; Expressed in E. coli; also called pGST-hTNF-R2icd; wild type (wt) GST-hTNF-R2icd; not shown: glutathione S-transferase as encoded by vector pGEX-2TK (Pharmacia), with the vector's linker up to the BamHI site

- binding result [1]: binds
B4: GAL4 DNA-binding domain fused to the intracellular domain of human TNF-R2 (other, yeast;human, UniProt P04386 1-147, looked up)
chain: MKLLSSIEQACDICRLKKLKCSKEKPKCAKCLKNNWECRYSPKTKRSPLTRAHLTEVESRLERLEQLFLLIFPREDLDMILKMDSLQDIKALLTGLFVQDNVNKDAVTDRLASVETDMPLTLRQHRISATSSSEESSNKGQRQLTVSKKKPLCLQREAKVPHLPADKARGTQGPEQQHLLITAPSSSSSSLESSASALDRRAPTRNQPQAPGVEASGAGEARASTGSSDSSPGGHGTQVNVTCIVNVCSSSDHSSQCSSQASSTMGDTDSSPSESPKDEQVPFSKEECAFRSQLETPETLLGSTEEKPLPLGVPDAGMKPS
notes: also called GAL4(DB)-hTNF-R2icd; pPC97-hTNF-R2icd

Continued, binder first:

B1: GAL4 DNA-binding domain fused to the intracellular domain of the murine TNF-R2 (other, yeast;murine, UniProt P04386 1-147, looked up)
chain: MKLLSSIEQACDICRLKKLKCSKEKPKCAKCLKNNWECRYSPKTKRSPLTRAHLTEVESRLERLEQLFLLIFPREDLDMILKMDSLQDIKALLTGLFVQDNVNKDAVTDRLASVETDMPLTLRQHRISATSSSEESSNKGQRQLTVSKKKPSCLQRDAKVPHVPDEKSQDAVGLEQQHLLTTAPSSSSSSLESSASAGDRRAPPGGHPQARVMAEAQGFQEARASSRISDSSHGSHGTHVNVTCIVNVCSSSDHSSQCSSQASATVGDPDAKPSASPKDEQVPFSQEECPSQSPCETTETLQSHEKPLPLGVPDMGMKPSQAGWFDQIAVKVA
notes: also called GAL4(DB)-mTNF-R2icd; pPC97-mTNF-R2icd
- binding result [1]: binds

B2: human type 2 TNF receptor, wild type full length (receptor, UniProt P20333 23-461, looked up)
chain: LPAQVAFTPYAPEPGSTCRLREYYDQTAQMCCSKCSPGQHAKVFCTKTSDTVCDSCEDSTYTQLWNWVPECLSCGSRCSSDQVETQACTREQNRICTCRPGWYCALSKQEGCRLCAPLRKCRPGFGVARPGTETSDVVCKPCAPGTFSNTTSSTDICRPHQICNVVAIPGNASMDAVCTSTSPTRSMAPGAVHLPQPVSTRSQHTQPTPEPSTAPSTSFLLPMGPSPPAEGSTGDFALPVGLIVGVTALGLLIIGVVNCVIMTQVKKKPLCLQREAKVPHLPADKARGTQGPEQQHLLITAPSSSSSSLESSASALDRRAPTRNQPQAPGVEASGAGEARASTGSSDSSPGGHGTQVNVTCIVNVCSSSDHSSQCSSQASSTMGDTDSSPSESPKDEQVPFSKEECAFRSQLETPETLLGSTEEKPLPLGVPDAGMKPS
notes: whole, on cells; Whole receptor made by transfected cells, assayed after detergent lysis, not on intact cells; also called hTNF-R2; 75-80 kd hTNF-R2
- binding result (GST-TRAF2 fusion protein): binds
